Reference: US20190382483A1

Experiments:
[1] = target: hSIRPa-His recombinant protein (Sino Biologicals, reference 11612-H08H) (human) (UniProt P78324); assay: Biacore (SPR)
[2] = target: Recombinant hSIRPg-His (Sino Biologicals, reference 11828-H08H) (human) (UniProt Q9P1W8); assay: Blitz (BLI); SIRPg pre-incubated with SIRP29; details: Fc fusion
[3] = target: Recombinant hSIRPg-His (Sino Biologicals, reference 11828-H08H) (human) (UniProt Q9P1W8); assay: Blitz (BLI); no antibody; details: Fc fusion
[4] = target: Recombinant hSIRPg-His (Sino Biologicals, reference 11828-H08H) (human) (UniProt Q9P1W8); assay: Blitz (BLI); SIRPg pre-incubated with Kwar23; details: Fc fusion

Chain of human CD47Fc (Sino Biologicals, reference 12283-H02H) (Q08722 19-139): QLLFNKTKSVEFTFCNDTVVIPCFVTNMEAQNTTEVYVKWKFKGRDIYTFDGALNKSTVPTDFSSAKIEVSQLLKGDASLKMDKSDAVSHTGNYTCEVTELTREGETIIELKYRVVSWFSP
Chain of Recombinant hSIRPg-His (Sino Biologicals, reference 11828-H08H) (human) (Q9P1W8 29-360): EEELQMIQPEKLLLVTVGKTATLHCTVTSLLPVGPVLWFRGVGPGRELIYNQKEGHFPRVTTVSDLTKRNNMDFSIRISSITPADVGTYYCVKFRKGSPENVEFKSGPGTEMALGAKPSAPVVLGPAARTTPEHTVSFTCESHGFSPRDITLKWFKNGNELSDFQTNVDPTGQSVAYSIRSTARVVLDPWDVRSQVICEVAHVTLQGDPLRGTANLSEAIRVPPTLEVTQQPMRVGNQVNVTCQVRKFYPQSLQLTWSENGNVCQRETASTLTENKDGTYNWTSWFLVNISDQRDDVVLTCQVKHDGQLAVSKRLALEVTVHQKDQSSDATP
Chain of hSIRPa-His recombinant protein (Sino Biologicals, reference 11612-H08H) (human) (P78324 31-370): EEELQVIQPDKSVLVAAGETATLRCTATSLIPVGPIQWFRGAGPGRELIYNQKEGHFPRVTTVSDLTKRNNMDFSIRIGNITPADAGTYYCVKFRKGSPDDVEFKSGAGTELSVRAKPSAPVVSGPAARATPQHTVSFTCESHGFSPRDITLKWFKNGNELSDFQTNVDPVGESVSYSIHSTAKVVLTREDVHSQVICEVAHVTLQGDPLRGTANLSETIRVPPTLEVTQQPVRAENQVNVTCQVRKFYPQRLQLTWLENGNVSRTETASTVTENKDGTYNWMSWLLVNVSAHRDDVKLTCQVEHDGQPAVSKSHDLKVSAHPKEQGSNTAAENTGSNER

Substance	Kd [1]	Kd [2]	Kd [3]	Kd [4]
Kwar23	0.000367 µM			
human CD47Fc (Sino Biologicals, reference 12283-H02H) (from UniProt Q08722 19-139)		2.57 µM	0.597 µM	288 µM
